Reference: the DeepSol protein solubility set

test: soluble on expression in E. coli; label from the status in PepcDB or PDB records

Soluble on expression in E. coli, not soluble:
MGSDKIHHHHHHMLGMPTVLGVVLRMGRELWWCSLRPVSMLKEYAYCPRVAYYMEVLRPSYRPTEPMNLSREIYSVDHVRGILRSSGFRIVKEEWAVPLRSKRLGLQGVADGVVVEGSLGIIVVEAKLSVRSNRWLHTRGRHVIFQAAAYALALEETRGYSVDYLAIVSLEDSKTYVVKMSPSLRRDVIRLADDMNKTLDDGLEPPPKPGRKCVACRFRRVCQPWVAERGSER
MGSDKIHHHHHHMLGRSANGIFWLFRYLERAENSARAIEAGFRLALTRDASDASDEWRSLIVTLGLQNAYEAKYGPGFTGPHVFNFILRDRENPGSVLAMMEMARTNARMVRAGITREVWESVNDGWMKLREALARPVTETRLGDVLDLVRRQSTQVRGAIEGTMLRNEIYNFARLGSFIERADNTARILDVKYYVLLPSVSYVGSSLDNVQWENVLRSLAGERAYRWLNAGRMDPRGIAEFLILDERFPRSLAFCYSKLRSNLASLAREYGGEMHSHEILRDADTQLHTATIEAIFDQGLHEFIGKFIACNTALALQIQRDYRFTE
MGSDKIHHHHHHMLIPLYMRYHESLKPDPIIHDASALRLVPQIDYDFSKFDTAIRSSVGSAIRATYLDSLTKAFIQQHQQPIIVMIGCGLDARHERVGDIGKNVPFYELDLPDVIALRKQLMPPAENEILLAASAFDTDWMDELRSTYPQAQFLFVIEGVLMYFNEAQVKKLFEDLAVRFSGGEIAFDIGSTWMSRNSQKHHDVMKHMRAQFDYGCDDDHEMERWADNLHLISAKYMFDFPAWKRIGLLQAAIMWIVPFVRKSYRFLYYRIS
MGSDKIHHHHHHMLKKESIHFINKNRSLIVCEDNFVYLLPCIQLRNWISNFTISFPNQTIISDNYTIIPHGSVTLVFFYDATGLHSLLFGPTTKPKTVGNIANRCDVILIIEFQPAGFFPLIGIQQSELIDKVVPFSIINTSLDLEIKKIFNESLSIDKLILKLEELLISNIKIEYSYEFILAIQLIIQNSGNISSQEISKKVFYSSRHLNRLFNQYLGLSMKSFSRLVRINKSIKLLNNNKTSLMSICNELGFYDIPHFIKDFKIVCGITPQKYRANMSDFYSEIAKF
MGSDKIHHHHHHMLKLDKIQANKIVEKLMADIPYNINIMDERGKIIASGDSARIGERHRGAERAINERKNIEIYKDTSLEKKGTNEPIILNNHILGVVGISGEPDEVRKFTKLVRSIVLLLTEELNTQQEREKKKKQKNQFIQHLMHVDSSYSEALKLEALELYNLQLDDQNHCVLTKDKRLLSSYYPGHEIFEWENCYLVITSEPPQITKPVTEYLVISSEKATIQQMVQEAQNTYLLLSFLQLEKAKFYQAEDFFIQGIFNFPFHIELDFFETIQTIYDEYYETVIFFANHNLNINETSQVLHIHRNTLNYRLKRIHELTGMDPKVWQDFWKLFYYFAYCFKERFEK
MGSDKIHHHHHHMLKQLILENWKSFRYAELPLDPLTVLIGTNASGKSNVVEALEFLQRIARGENVEAALAGDKTLVSIRGGVEWAARKQETGFTLQTLIQGEDETQDYLYTVQIQTIPEVRVIQEQITFENINQDNVVYNKKHLTVKNPIFPTKSGLENLELHVDINDLMQFFPPDQNILLGDKDFLETLNNVLLPFRNKACKFVVASLKNIFILNPIASNMRNYSRLADDLESDASNIAGVLAALPDDLKLEIELTLSTYIKDLPEGDIKKVWAEKVGRFGTDAMLYCQEEWKPGHSTDIDARSMSDGTLRFLAILTALLTRPEGSQIVIEEIDNGLHPSRAKLLVKILREIGSKRNIDILLTTHNPALLDALGPDTVPFVVVAHRDAETGESKLTLLENIDNFSKLFASYSLGEMTTKGAIERSLSHSE
MGSDKIHHHHHHMLLEKLNWRYAAKKMDPAKVVSEDKVERIVEAARLAPTSSGLQPFEIIVVTNAEVREKIKAIGWNQSPITDGSHLLVFAAWDNYTAERINHMFDLVNEVRGFRNEGWENYRQMLLSAYPQRDPETNFEHAARQAYIAFGLALAQAAFEGVDATPMEGFDPKALDEILGLRERGLRSVTIAPLGYRQVEGDWLVNLQKVRRPRDQFVTEVK
MGSDKIHHHHHHMLLKPDQRLKLDDTDDNLFYAYPRFVTHVDEGFIQQLTDLYRERLQPNTRILDMMSSWVSHLPEEIKFAHVEGHGLNAEELGRNPQLNHYFVQNLNENPGLPLPDQEFDAVLNCVSVQYLQYPEAVFSEIHRILKPGGVAIISFSNRMFYQKAIQAWRDASEPGRLELVKRYFASVPGFSTPEIIARKSTAPNFLQWLGAPGGDPFYAAIAHREGFA
